Measured values as given in patent US20090215639A1.

Target: human full length IgG1 (Calbiochem) (human)
Test: BIAcore SPR, IgG1 immobilized, soluble receptor injected

fold faster koff against FcγRIIIaV158 [fold] | koff [s⁻¹] | Substance
6 | 0.0858 | FcγRIIIa F158 (receptor)
 | 0.0139 | FcγRIIIa V158 (receptor)
